# Experiments:
# [1] = test system: T1, amidated 16'mer peptide RKKFGESEKTKTKEFL
# T1 sequence: RKKFGESEKTKTKEFL
# [2] = test system: peptides centered around the phosphorylation site of eEF-2
substance,measurement,setting,value
recombinant eEF-2 kinase (as used in the peptide phosphorylation assay),phosphoacceptor activity,[1],"amidation of the peptide further stabilizes the α-helical structure, resulting in stronger phosphoacceptor activity"
same,phosphorylation assays,[2],This strategy did not yield a peptide that was functional in phosphorylation assays (data not shown)

# Reference: patent publication US20020142429
